Measured values published in the Immune Epitope Database (IEDB).

What was measured:
HLA-A*02:01 [1] = assay: IEDB peptide-MHC binding, purified MHC/direct/fluorescence; filed as Kd, often an IC50 or EC50 that approximates it; ≥ and ≤ were set here for values at or beyond the usual limits of such assays
HLA-A*11:01 = assay: as above
HLA-A*31:01 = assay: as above
HLA-B*07:02 = assay: as above
HLA-B*27:05 = assay: as above
HLA-B*40:01 = assay: as above
HLA-B*48:01 = assay: as above; conditions: source organism: Mycobacterium tuberculosis
HLA-B*58:01 = assay: as above
HLA-A*01:01 [2] = assay: IEDB peptide-MHC binding, purified MHC/competitive/fluorescence; filed as Kd, often an IC50 or EC50 that approximates it; ≥ and ≤ were set here for values at or beyond the usual limits of such assays; conditions: source organism: Mycobacterium tuberculosis variant bovis BCG str. Pasteur 1173P2
HLA-A*02:06 = assay: as above
HLA-A*26:01 [3] = assay: as above; conditions: source organism: Mycobacterium tuberculosis variant bovis BCG str. Pasteur 1173P2
HLA-A*26:02 [4] = assay: as above; conditions: source organism: Mycobacterium tuberculosis variant bovis BCG str. Pasteur 1173P2
HLA-A*26:03 = assay: as above; conditions: source organism: Mycobacterium tuberculosis variant bovis BCG str. Pasteur 1173P2
HLA-A*68:02 = assay: as above; conditions: source organism: Mycobacterium tuberculosis variant bovis BCG str. Pasteur 1173P2
HLA-A*69:01 [5] = assay: as above
HLA-B*15:17 = assay: as above; conditions: source organism: Mycobacterium tuberculosis variant bovis BCG str. Pasteur 1173P2
HLA-A*01:01 [6] = assay: IEDB peptide-MHC binding, purified MHC/direct/fluorescence; filed as Kd, often an IC50 or EC50 that approximates it; ≥ and ≤ were set here for values at or beyond the usual limits of such assays
HLA-A*69:01 [7] = assay: as above
HLA-B*46:01 = assay: as above; conditions: source organism: Mycobacterium tuberculosis
HLA-B*57:01 = assay: as above; conditions: source organism: Mycobacterium tuberculosis
HLA-B*15:01 [8] = assay: IEDB peptide-MHC binding, purified MHC/competitive/fluorescence; filed as Kd, often an IC50 or EC50 that approximates it; ≥ and ≤ were set here for values at or beyond the usual limits of such assays; conditions: source organism: Mycobacterium tuberculosis variant bovis BCG str. Pasteur 1173P2
HLA-B*18:01 = assay: as above; conditions: source organism: Mycobacterium tuberculosis variant bovis BCG str. Pasteur 1173P2
HLA-B*35:01 [9] = assay: as above; conditions: source organism: Mycobacterium tuberculosis variant bovis BCG str. Pasteur 1173P2
HLA-A*02:01 [10] = assay: IEDB peptide-MHC binding, cellular MHC/competitive/fluorescence; ≥ and ≤ were set here for values at or beyond the usual limits of such assays
HLA-A*02:01 [11] = assay: IEDB peptide-MHC binding, purified MHC/competitive/fluorescence; filed as Kd, often an IC50 or EC50 that approximates it; ≥ and ≤ were set here for values at or beyond the usual limits of such assays; conditions: source organism: human gammaherpesvirus 4
HLA-A*02:03 = assay: as above; conditions: source organism: human gammaherpesvirus 4
HLA-A*02:11 = assay: as above; conditions: source organism: human gammaherpesvirus 4
HLA-A*02:12 = assay: as above; conditions: source organism: human gammaherpesvirus 4
HLA-A*02:16 = assay: as above; conditions: source organism: human gammaherpesvirus 4
HLA-A*02:19 = assay: as above; conditions: source organism: human gammaherpesvirus 4
HLA-A*26:02 [12] = assay: IEDB peptide-MHC binding, purified MHC/direct/fluorescence; filed as Kd, often an IC50 or EC50 that approximates it; ≥ and ≤ were set here for values at or beyond the usual limits of such assays; conditions: source organism: West Nile virus strain PTRoxo
HLA-A*32:07 = assay: IEDB peptide-MHC binding, purified MHC/competitive/fluorescence; filed as Kd, often an IC50 or EC50 that approximates it; ≥ and ≤ were set here for values at or beyond the usual limits of such assays; conditions: source organism: West Nile virus
HLA-A*32:15 = assay: as above; conditions: source organism: West Nile virus
HLA-B*15:42 = assay: as above; conditions: source organism: West Nile virus
HLA-B*45:06 = assay: as above; conditions: source organism: West Nile virus
HLA-B*83:01 = assay: as above; conditions: source organism: West Nile virus
HLA-C*05:01 = assay: IEDB peptide-MHC binding, purified MHC/direct/fluorescence; filed as Kd, often an IC50 or EC50 that approximates it; ≥ and ≤ were set here for values at or beyond the usual limits of such assays
HLA-C*06:02 = assay: as above; conditions: source organism: Entamoeba histolytica HM-1:IMSS
HLA-C*07:02 = assay: as above; conditions: source organism: Entamoeba histolytica HM-1:IMSS
HLA-C*08:02 = assay: as above
HLA-A*03:01 = assay: as above; conditions: source organism: Burkholderia mallei
HLA-A*24:03 = assay: as above; conditions: source organism: Burkholderia mallei
HLA-A*26:01 [13] = assay: as above; conditions: source organism: Burkholderia mallei
HLA-B*08:01 = assay: as above; conditions: source organism: Burkholderia mallei
HLA-B*15:01 [14] = assay: as above; conditions: source organism: Burkholderia mallei
HLA-B*35:01 [15] = assay: as above; conditions: source organism: Burkholderia mallei
HLA-B*14:02 = assay: as above; conditions: source organism: Homo sapiens
[16] = source organism: Mycobacterium tuberculosis
[17] = source organism: Mycobacterium tuberculosis variant bovis BCG str. Pasteur 1173P2
[18] = source organism: human gammaherpesvirus 4
[19] = source organism: Entamoeba histolytica HM-1:IMSS
[20] = source organism: Burkholderia mallei
[21] = source organism: Burkholderia pseudomallei 91

ATADLELAY
Kd (HLA-A*02:01 [1]; [16]): 0.818 µM | Kd (HLA-A*11:01; [16]): 0.0105 µM | Kd (HLA-A*31:01; [16]): ≥ 20 µM | Kd (HLA-B*07:02; [16]): ≥ 20 µM | Kd (HLA-B*27:05; [16]): ≥ 20 µM | Kd (HLA-B*40:01; [16]): ≥ 20 µM | Kd (HLA-B*48:01): ≥ 20 µM | Kd (HLA-B*58:01; [16]): 0.0098 µM | Kd (HLA-A*01:01 [2]): 0.0227 µM | Kd (HLA-A*02:06; [17]): 2.5 µM | Kd (HLA-A*26:01 [3]): 0.428 µM | Kd (HLA-A*26:02 [4]): 0.13 µM | Kd (HLA-A*26:03): ≥ 20 µM | Kd (HLA-A*68:02): ≥ 20 µM | Kd (HLA-A*69:01 [5]; [17]): ≥ 20 µM | Kd (HLA-B*15:17): 0.0111 µM

AVFLSYIGY
Kd (HLA-A*01:01 [6]; [16]): ≥ 20 µM | Kd (HLA-A*02:01 [1]; [16]): ≥ 20 µM | Kd (HLA-A*11:01; [16]): 1.56 µM | Kd (HLA-A*31:01; [16]): ≥ 20 µM | Kd (HLA-A*69:01 [7]; [16]): ≥ 20 µM | Kd (HLA-B*07:02; [16]): ≥ 20 µM | Kd (HLA-B*27:05; [16]): ≥ 20 µM | Kd (HLA-B*40:01; [16]): ≥ 20 µM | Kd (HLA-B*46:01): ≥ 20 µM | Kd (HLA-B*48:01): ≥ 20 µM | Kd (HLA-B*57:01): ≥ 20 µM | Kd (HLA-B*58:01; [16]): 17 µM | Kd (HLA-A*26:01 [3]): ≥ 20 µM | Kd (HLA-A*26:03): ≥ 20 µM | Kd (HLA-A*68:02): 3.04 µM | Kd (HLA-B*15:01 [8]): 1.84 µM | Kd (HLA-B*15:17): 0.315 µM | Kd (HLA-B*18:01): ≥ 20 µM | Kd (HLA-B*35:01 [9]): 3.95 µM

CLGGLLTMV
IC50 (HLA-A*02:01 [10]; [18]): 2.5 µM | Kd (HLA-A*02:01 [11]): 0.023 µM | Kd (HLA-A*02:03): 0.00067 µM | Kd (HLA-A*02:06; [18]): ≤ 0.0001 µM | Kd (HLA-A*02:11): ≤ 0.0001 µM | Kd (HLA-A*02:12): ≤ 0.001 µM | Kd (HLA-A*02:16): ≤ 0.0001 µM | Kd (HLA-A*02:19): 0.0075 µM | Kd (HLA-A*69:01 [5]; [18]): 3.17 µM

ETTNWLWAF
Kd (HLA-A*26:02 [12]): ≤ 0.001 µM | Kd (HLA-A*32:07): 0.0263 µM | Kd (HLA-A*32:15): 0.0251 µM | Kd (HLA-B*15:42): ≥ 5 µM | Kd (HLA-B*45:06): ≥ 5 µM | Kd (HLA-B*83:01): ≥ 5 µM

FAMRLLQAV
Kd (HLA-C*05:01; [19]): 3.17 µM | Kd (HLA-C*06:02): 0.844 µM | Kd (HLA-C*07:02): 2.89 µM | Kd (HLA-C*08:02; [19]): 0.017 µM

ISDSAQNMM
Kd (HLA-A*01:01 [6]; [20]): 1.04 µM | Kd (HLA-A*02:01 [1]; [20]): ≥ 20 µM | Kd (HLA-A*03:01): ≥ 20 µM | Kd (HLA-A*11:01; [20]): ≥ 20 µM | Kd (HLA-A*24:03): ≥ 20 µM | Kd (HLA-A*26:01 [13]): ≥ 20 µM | Kd (HLA-A*31:01; [20]): ≥ 20 µM | Kd (HLA-A*69:01 [7]; [20]): ≥ 20 µM | Kd (HLA-B*07:02; [20]): ≥ 20 µM | Kd (HLA-B*08:01): ≥ 20 µM | Kd (HLA-B*15:01 [14]): ≥ 20 µM | Kd (HLA-B*27:05; [20]): ≥ 20 µM | Kd (HLA-B*35:01 [15]): 0.0402 µM | Kd (HLA-B*40:01; [20]): ≥ 20 µM | Kd (HLA-B*58:01; [20]): 0.151 µM | Kd (HLA-C*05:01; [21]): 0.003 µM | Kd (HLA-C*08:02; [21]): ≤ 0.001 µM

KMDASLGNLFA
IC50 (HLA-A*02:01 [10]; source organism: Homo sapiens): 1.11 µM

LLLDVPTAAV
IC50 (HLA-A*02:01 [10]; source organism: Homo sapiens): 0.53 µM

LQVAHEEI
Kd (HLA-B*14:02): 0.528 µM

NQIIHRDL
Kd (HLA-B*14:02): 0.13 µM

VSPLHRVL
Kd (HLA-B*14:02): 0.0896 µM
